# Laboratory results: article PMC6503385, “Functional characterization of BmOVOs in silkworm, Bombyx mori”
# Target: BmOVO zinc-finger domain (BmOVO-2 C-terminal) (Bombyx mori, UniProt D3YIG7 629-806)
# Test: EMSA; 0.02 mg/ml protein, poly dI.dC; LightShift EMSA kit, 20 ul: 1x binding buffer, 1 ul each poly dI.dC, NP-40, KCl, glycerol; 0.75 pM probe; 20 min at room temperature; 6% polyacrylamide gel; pH
# Details: protein: recombinant; tags: 6xHis (pET28a); label: biotin (5' on both strands as printed); blunt
# Chain of BmOVO zinc-finger domain (BmOVO-2 C-terminal) (D3YIG7 entry or part of it): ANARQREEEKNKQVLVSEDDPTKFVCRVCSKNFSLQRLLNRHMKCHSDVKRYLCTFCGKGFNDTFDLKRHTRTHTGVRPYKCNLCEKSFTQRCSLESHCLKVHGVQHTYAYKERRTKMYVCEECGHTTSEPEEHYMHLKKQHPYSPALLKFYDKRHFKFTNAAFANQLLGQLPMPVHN
binder,measurement,value
otu-A (CE1) (dsDNA) DNA 1: GCCCCTAAAATGTACCGTTGTAACTTCTGT DNA 2: ACAGAAGTTACAACGGTACATTTTAGGGGC,binding result,binds
